Consider one molecule from PMC6689063.

This assay deals with T1, AztC from Paracoccus denitrificans (WT PdAztC), solute binding protein of the AztABC zinc transporter (Paracoccus denitrificans PD1222) (UniProt A1B2F3).
T1 sequence: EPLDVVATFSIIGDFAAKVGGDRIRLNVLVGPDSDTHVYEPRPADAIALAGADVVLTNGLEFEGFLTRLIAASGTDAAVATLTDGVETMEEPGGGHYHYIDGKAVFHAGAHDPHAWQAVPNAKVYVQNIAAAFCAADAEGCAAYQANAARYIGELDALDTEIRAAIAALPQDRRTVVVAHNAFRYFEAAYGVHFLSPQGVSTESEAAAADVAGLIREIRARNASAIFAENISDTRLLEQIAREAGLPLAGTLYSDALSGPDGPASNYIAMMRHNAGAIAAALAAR

B1: ΔS1 PdAztD (H124A/H167A/H218A) (natural protein)
chain: QDHDHDHEDVTLYRVFVGDHEKGQVTAFDLAEPDHRWTFPTTGQVKLYSVAGGAVVAAVQSDADTVQFIRSGISFHDHGDHRDIEVGDPAAIDASLTGPRPFALVEHDGKVVLNYDQGGYAEILDGHALAEGKAEPGRFPQARAHAGFVAPLGGNWLSTVASDEKVEGDASVPRLGLQAFDAEGNPAGNLATCTGIAGEAFSGAYLAAGCKEGVLTVKAGANGSEYKLLPYPADLPQGVTTGTLLGSTGIQVFLGNYGPDGLVVIDPVDEPHYRYIKLPFRRVDFALDPAKPSTGYVLTEDGSLHRIDLLKAEIVASAKVTEPYSMDGHWNDPRPRIAMAGDEIVVTDPNAGLVRRIATEDLSERGTVPVEGKPYNIAVTGGSGVTH
With B1, the zinc transferred to AztC after incubation of 100 μM each protein with 1 mM EDTA, anion exchange chromatography and zinc quantitation by ICP-OES (equivalent of zinc) was 1.
